Assay results published in article PMC5563082 (2017).

T1: human NL1(–A+B)_(ECTO), immobilised for SPR (human, biotin on the Avitag (in vivo biotinylation by BirA); N-linked glycan at Asn300)
T1 chain: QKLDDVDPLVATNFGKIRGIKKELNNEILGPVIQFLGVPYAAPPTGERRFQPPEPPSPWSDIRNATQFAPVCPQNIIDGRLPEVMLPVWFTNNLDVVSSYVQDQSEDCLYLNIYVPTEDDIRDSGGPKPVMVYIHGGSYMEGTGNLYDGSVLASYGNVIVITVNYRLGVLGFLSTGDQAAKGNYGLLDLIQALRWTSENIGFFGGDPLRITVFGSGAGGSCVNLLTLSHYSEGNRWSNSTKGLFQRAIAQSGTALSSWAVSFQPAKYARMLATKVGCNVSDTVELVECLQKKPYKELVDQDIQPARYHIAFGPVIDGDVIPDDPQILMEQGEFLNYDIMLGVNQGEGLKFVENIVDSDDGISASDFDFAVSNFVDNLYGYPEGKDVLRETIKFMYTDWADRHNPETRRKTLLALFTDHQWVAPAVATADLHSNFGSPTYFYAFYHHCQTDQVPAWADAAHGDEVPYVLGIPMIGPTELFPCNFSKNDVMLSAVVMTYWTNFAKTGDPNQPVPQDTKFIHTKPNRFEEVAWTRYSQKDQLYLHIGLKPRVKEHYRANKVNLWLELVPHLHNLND

T2: human NL1(–A+B Asn300Gln)_(ECTO), immobilised for SPR (human, biotin on the Avitag (in vivo biotinylation by BirA))
T2 chain: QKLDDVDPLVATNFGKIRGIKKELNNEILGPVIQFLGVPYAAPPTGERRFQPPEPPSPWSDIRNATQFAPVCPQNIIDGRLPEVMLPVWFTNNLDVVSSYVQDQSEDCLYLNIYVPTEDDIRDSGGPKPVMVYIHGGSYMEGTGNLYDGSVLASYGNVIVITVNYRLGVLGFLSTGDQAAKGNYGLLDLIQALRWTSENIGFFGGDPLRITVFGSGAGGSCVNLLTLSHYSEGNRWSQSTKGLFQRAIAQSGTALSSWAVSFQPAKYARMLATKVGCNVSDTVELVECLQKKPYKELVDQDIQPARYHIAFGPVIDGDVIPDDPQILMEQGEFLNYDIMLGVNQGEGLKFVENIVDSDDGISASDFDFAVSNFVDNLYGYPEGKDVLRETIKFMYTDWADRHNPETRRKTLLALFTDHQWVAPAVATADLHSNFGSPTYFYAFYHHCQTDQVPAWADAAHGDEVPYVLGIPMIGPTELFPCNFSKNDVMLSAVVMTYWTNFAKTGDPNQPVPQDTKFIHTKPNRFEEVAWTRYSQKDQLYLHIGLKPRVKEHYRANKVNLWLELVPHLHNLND

T3: human NL5_(ECTO) (NL4(Y); Gln42-Glu602), immobilised for SPR (human, UniProt Q8NFZ3-1 42-602, biotin on the Avitag (in vivo biotinylation by BirA))
T3 chain: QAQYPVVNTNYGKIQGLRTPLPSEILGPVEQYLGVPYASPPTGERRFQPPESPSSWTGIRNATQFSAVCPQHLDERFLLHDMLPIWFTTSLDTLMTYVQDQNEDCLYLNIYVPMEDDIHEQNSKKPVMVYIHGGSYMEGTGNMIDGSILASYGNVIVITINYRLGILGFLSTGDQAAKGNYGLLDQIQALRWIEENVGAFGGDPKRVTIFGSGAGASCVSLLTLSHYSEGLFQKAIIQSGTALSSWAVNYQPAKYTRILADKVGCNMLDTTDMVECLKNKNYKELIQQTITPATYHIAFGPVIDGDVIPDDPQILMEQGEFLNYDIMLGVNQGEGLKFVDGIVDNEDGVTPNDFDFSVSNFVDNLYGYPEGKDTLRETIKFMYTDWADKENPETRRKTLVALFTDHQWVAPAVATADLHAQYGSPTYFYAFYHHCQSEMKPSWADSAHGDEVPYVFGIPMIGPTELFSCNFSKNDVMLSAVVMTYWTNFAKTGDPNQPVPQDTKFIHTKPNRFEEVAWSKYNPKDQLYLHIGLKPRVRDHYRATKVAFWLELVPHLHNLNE

T4: human NL1(–A–B)_(ECTO), biotinylated and immobilised for SPR (human, biotin on the Avitag (in vivo biotinylation by BirA))
T4 chain: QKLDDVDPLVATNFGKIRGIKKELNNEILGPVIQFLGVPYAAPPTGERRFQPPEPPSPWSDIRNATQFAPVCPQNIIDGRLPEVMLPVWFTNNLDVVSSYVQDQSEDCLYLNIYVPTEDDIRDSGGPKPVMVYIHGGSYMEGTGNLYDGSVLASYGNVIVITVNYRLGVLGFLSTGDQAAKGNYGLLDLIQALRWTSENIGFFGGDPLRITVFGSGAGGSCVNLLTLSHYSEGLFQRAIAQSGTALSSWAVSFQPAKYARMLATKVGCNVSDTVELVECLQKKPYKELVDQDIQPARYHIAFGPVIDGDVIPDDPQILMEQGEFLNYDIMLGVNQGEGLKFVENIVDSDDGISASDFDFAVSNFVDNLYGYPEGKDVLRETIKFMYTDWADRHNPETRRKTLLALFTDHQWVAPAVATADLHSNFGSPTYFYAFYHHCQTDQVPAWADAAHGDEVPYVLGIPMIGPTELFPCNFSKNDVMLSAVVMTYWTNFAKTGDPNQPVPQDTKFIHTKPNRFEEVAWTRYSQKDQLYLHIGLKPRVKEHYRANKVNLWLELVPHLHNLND


What was measured:
Test in all cases: SPR
[1] = molecular target: T1, human NL1(–A+B)_(ECTO), immobilised for …
[2] = molecular target: T2, human NL1(–A+B Asn300Gln)_(ECTO), …
[3] = molecular target: T3, human NL5_(ECTO) (NL4(Y)); …
[4] = molecular target: human NL2(–A)_(ECTO) (Glu38-His612), immobilised for SPR (human, UniProt Q8NFZ4 38-612, –A: GPLTKKRDEATLNPPDT between Asp152 and Asp170 absent, biotin on the Avitag (in vivo biotinylation by BirA))
[5] = molecular target: human NL3(–A)_(ECTO) (Gln38-Asp636), immobilised for SPR (human, UniProt Q9NZ94-1 38-636, –A: nothing between Asp152 and Asp193, biotin on the Avitag (in vivo biotinylation by BirA))
[6] = molecular target: T4, human NL1(–A–B)_(ECTO), biotinylated …

Chain of human NL3(–A)_(ECTO) (Gln38-Asp636), immobilised for SPR (Q9NZ94 other isoform, or with tags, fused parts or gaps –A: nothing between Asp152 and Asp193): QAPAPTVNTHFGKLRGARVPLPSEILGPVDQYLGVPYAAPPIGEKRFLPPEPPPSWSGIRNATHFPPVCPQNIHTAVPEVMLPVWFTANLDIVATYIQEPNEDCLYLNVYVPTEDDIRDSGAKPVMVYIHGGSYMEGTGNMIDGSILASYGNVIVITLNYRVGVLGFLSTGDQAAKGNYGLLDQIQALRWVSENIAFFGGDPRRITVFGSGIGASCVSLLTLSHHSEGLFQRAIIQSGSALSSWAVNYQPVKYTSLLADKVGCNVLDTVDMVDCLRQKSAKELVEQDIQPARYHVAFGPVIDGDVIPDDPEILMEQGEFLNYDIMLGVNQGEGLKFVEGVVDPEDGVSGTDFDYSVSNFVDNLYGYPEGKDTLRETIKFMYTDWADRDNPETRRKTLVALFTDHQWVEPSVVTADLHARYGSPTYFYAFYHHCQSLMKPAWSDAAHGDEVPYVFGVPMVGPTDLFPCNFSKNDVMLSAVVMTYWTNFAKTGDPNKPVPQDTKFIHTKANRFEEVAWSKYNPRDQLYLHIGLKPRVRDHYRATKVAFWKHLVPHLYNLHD
Chain of human NL2(–A)_(ECTO) (Glu38-His612), immobilised for SPR (Q8NFZ4 other isoform, or with tags, fused parts or gaps with the stated changes): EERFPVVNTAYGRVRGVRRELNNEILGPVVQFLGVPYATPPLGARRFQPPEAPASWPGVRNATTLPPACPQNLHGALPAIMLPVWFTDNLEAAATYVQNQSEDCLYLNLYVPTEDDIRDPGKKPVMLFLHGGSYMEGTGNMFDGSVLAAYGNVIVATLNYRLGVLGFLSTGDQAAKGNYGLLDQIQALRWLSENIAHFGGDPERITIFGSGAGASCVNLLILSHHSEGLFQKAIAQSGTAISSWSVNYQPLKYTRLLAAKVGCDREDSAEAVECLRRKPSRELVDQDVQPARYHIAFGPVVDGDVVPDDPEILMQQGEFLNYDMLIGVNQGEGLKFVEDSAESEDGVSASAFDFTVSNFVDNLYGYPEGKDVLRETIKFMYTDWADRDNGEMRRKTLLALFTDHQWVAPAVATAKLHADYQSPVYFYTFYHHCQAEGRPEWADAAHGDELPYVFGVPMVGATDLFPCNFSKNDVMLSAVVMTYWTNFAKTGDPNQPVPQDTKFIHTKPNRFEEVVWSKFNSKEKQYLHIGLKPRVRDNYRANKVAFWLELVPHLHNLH

Kd [1]	Kd [2]	Kd [3]	Kd [4]	Kd [5]	Kd [6]	Binder
1.16 µM	1.09 µM	3.16 µM	0.699 µM	9.48 µM	0.64 µM	human β-neurexin-1 LNS6 domain lacking SS4 (β-NRX1_(LNS6)(–4); His85-Val265) (domain or fragment) not shown
4.75 µM	4.4 µM	14.2 µM	4 µM	36.8 µM	2.63 µM	human β-neurexin-1 LNS6 domain with SS4 (β-NRX1_(LNS6)(+4)) (domain or fragment) not shown
9.63 µM	4.03 µM	21.9 µM	0.768 µM	24.9 µM	1.69 µM	human MDGA2 extracellular domain (MDGA2_(ECTO); Gln21-Lys927) (domain or fragment) QGVYAPPTVRIVHSGLACNIEEERYSERVYTIREGETLELTCLVTGHPRPQIRWTKTAGSASDRFQDSSVFNETLRITNIQRHQGGRYYCKAENGLGSPAIKSIRVDVYYLDDPVVTVHQSIGEAKEQFYYERTVFLRCVANSNPPVRYSWRRGQEVLLQGSDKGVEIYEPFFTQGETKILKLKNLRPQDYANYSCIASVRNVCNIPDKMVSFRLSNKTASPSIKLLVDDPIVVNPGEAITLVCVTTGGEPAPSLTWVRSFGTLPEKTVLNGGTLTIPAITSDDAGTYSCIANNNVGNPAKKSTNIIVRALKKGRFWITPDPYHKDDNIQIGREVKISCQVEAVPSEELTFSWFKNGRPLRSSERMVITQTDPDVSPGTTNLDIIDLKFTDFGTYTCVASLKGGGISDISIDVNISSSTVPPNLTVPQEKSPLVTREGDTIELQCQVTGKPKPIILWSRADKEVAMPDGSMQMESYDGTLRIVNVSREMSGMYRCQTSQYNGFNVKPREALVQLIVQYPPAVEPAFLEIRQGQDRSVTMSCRVLRAYPIRVLTYEWRLGNKLLRTGQFDSQEYTEYAVKSLSNENYGVYNCSIINEAGAGRCSFLVTGKAYAPEFYYDTYNPVWQNRHRVYSYSLQWTQMNPDAVDRIVAYRLGIRQAGQQRWWEQEIKINGNIQKGELITYNLTELIKPEAYEVRLTPLTKFGEGDSTIRVIKYSAPVNPHLREFHCGFEDGNICLFTQDDTDNFDWTKQSTATRNTKYTPNTGPNADRSGSKEGFYMYIETSRPRLEGEKARLLSPVFSIAPKNPYGPTNTAYCFSFFYHMYGQHIGVLNVYLRLKGQTTIENPLWSSSGNKGQRWNEAHVNIYPITSFQLIFEGIRGPGIEGDIAIDDVSIAEGECAKQDLATK
13.2 µM	7.22 µM	23.2 µM		17.1 µM	3.62 µM	human MDGA1 extracellular domain (MDGA1_(ECTO); Gln19-Lys925) (domain or fragment) QGVYAPAQAQIVHAGQACVVKEDNISERVYTIREGDTLMLQCLVTGHPRPQVRWTKTAGSASDKFQETSVFNETLRIERIARTQGGRYYCKAENGVGVPAIKSIRVDVQYLDEPMLTVHQTVSDVRGNFYQEKTVFLRCTVNSNPPARFIWKRGSDTLSHSQDNGVDIYEPLYTQGETKVLKLKNLRPQDYASYTCQVSVRNVCGIPDKAITFRLTNTTAPPALKLSVNETLVVNPGENVTVQCLLTGGDPLPQLQWSHGPGPLPLGALAQGGTLSIPSVQARDSGYYNCTATNNVGNPAKKTVNLLVRSMKNATFQITPDVIKESENIQLGQDLKLSCHVDAVPQEKVTYQWFKNGKPARMSKRLLVTRNDPELPAVTSSLELIDLHFSDYGTYLCMASFPGAPVPDLSVEVNISSETVPPTISVPKGRAVVTVREGSPAELQCEVRGKPRPPVLWSRVDKEAALLPSGLPLEETPDGKLRLERVSRDMSGTYRCQTARYNGFNVRPREAQVQLNVQFPPEVEPSSQDVRQALGRPVLLRCSLLRGSPQRIASAVWRFKGQLLPPPPVVPAAAEAPDHAELRLDAVTRDSSGSYECSVSNDVGSAACLFQVSAKAYSPEFYFDTPNPTRSHKLSKNYSYVLQWTQREPDAVDPVLNYRLSIRQLNQHNAVVKAIPVRRVEKGQLLEYILTDLRVPHSYEVRLTPYTTFGAGDMASRIIHYTEPINSPNLSDNTCHFEDEKICGYTQDLTDNFDWTRQNALTQNPKRSPNTGPPTDISGTPEGYYMFIETSRPRELGDRARLVSPLYNASAKFYCVSFFYHMYGKHIGSLNLLVRSRNKGALDTHAWSLSGNKGNVWQQAHVPISPSGPFQIIFEGVRGPGYLGDIAIDDVTLKKGECPRKQTDPNK
